Data on 14 substances can be found in PMC3866529.

The test system of one series is Cys. As to conditions: cited from earlier work.
The target of series [1] is Cys22 (UniProt position 23, FIKPTCPYCRR). Particulars: cited from earlier work.
Series [2] has as its target Cys22 (UniProt position 23, FIKPTCPFCRK). As to conditions: cited from earlier work.
The target in series [3] is Cys22 (UniProt position 23, FIKPTCPFARK). Particulars: cited from earlier work.
The target in series [4] is Cys22 (UniProt position 23, FIKPTCPFSRK). Particulars: cited from earlier work.
A further series relates to Cys31. The experiment in a line: chemical modification. As to conditions: Pre-incubation temperature not stated; the HED activity assay was run at 25°C; not stated (100 mM buffer); 100 mM sodium citrate or phosphate buffers; DTT-reduced WT protein, no ligand.
The subject of another series is Cys23. The experiment in a line: chemical modification. Particulars: Pre-incubation temperature not stated; the HED activity assay was run at 25°C; not stated (100 mM buffer); 100 mM sodium citrate or phosphate buffers; DTT-reduced WT protein, no ligand.
A further series concerns Cys37. The experiment in a line: chemical modification. Particulars: Pre-incubation temperature not stated; the HED activity assay was run at 25°C; not stated (100 mM buffer); 100 mM sodium citrate or phosphate buffers; DTT-reduced WT protein, no ligand.
For the next series, the system named is Cys27. The experiment in a line: chemical modification.

One may read the pKa as the pH at which an ionisable group is half protonated. As for “Glutaredoxin 1 (CrGrx1) (Chlamydomonas reinhardtii)”, the pKa with Cys is recorded as 3.9 ± 0.1.
Take “Glutaredoxin 1 (HsGrx1, thioltransferase) (Homo sapiens)”: the pKa with Cys22 [1] is reported as 3.6.
For the substance “Glutaredoxin 1 (ScGrx1) (Saccharomyces cerevisiae)”, the pKa in the series on Cys was 3.2 to 4.0 ± 0.2.
With “Glutaredoxin 2 (CrGrx2) (Chlamydomonas reinhardtii)”, the pKa in the series on Cys was 4.8 ± 0.1.
On to Glutaredoxin 2 (HsGrx2) (Homo sapiens), for which the pKa with Cys is listed as 4.6.
Regarding “Glutaredoxin 2 (ScGrx2) (Saccharomyces cerevisiae)”, the pKa in the series with Cys is 3.1 to 3.5 ± 0.2.
“Glutaredoxin (pig liver thioltransferase) (Sus scrofa)”: the pKa with Cys22 [2] is listed as 3.8.
Take “Glutaredoxin (pig liver thioltransferase) C25A (Sus scrofa; C25A)”: in the series with Cys22 [3], the pKa is 5.9.
For the substance “Glutaredoxin (pig liver thioltransferase) C25S (Sus scrofa; C25S)”, the pKa in the series with Cys22 [4] is 4.9.
In the series on Cys31, “Glutaredoxin C1 (PtGrxC1) (Populus sp. (poplar; 'Pt' prefix, species not spelled out in the article))” showed a pKa of 5.3 ± 0.1.
Regarding “Glutaredoxin C2 (PtGrxC2) (Populus sp. (poplar; 'Pt' prefix, species not spelled out in the article))”, the pKa in the series on Cys23 is listed as 5.0 ± 0.1.
In the series with Cys37, “Glutaredoxin C3 (PtGrxC3) (Populus sp. (poplar; 'Pt' prefix, species not spelled out in the article))” had a pKa of 4.6 ± 0.1.
In the case of “Glutaredoxin C4 (PtGrxC4) (Populus sp. (poplar; 'Pt' prefix, species not spelled out in the article))”, in the series on Cys27 (Pre-incubation temperature not stated, the HED activity assay was run at 25°C, not stated (100 mM buffer), 100 mM sodium citrate or phosphate buffers, DTT-reduced WT protein, no ligand), the pKa is 4.6 ± 0.1.
“Glutaredoxin S12 (PtGrxS12) (Populus sp. (poplar))”: the pKa in the series on Cys27 (cited from earlier work) is listed as 3.9.
